Assay results as given in publication PMC9482650, “Quantitative fragmentomics allow affinity mapping of interactomes” (Nature Communications, 2022).

T1: APBA3_1, O96018
T1 sequence (O96018 389-490, limits assumed, looked up): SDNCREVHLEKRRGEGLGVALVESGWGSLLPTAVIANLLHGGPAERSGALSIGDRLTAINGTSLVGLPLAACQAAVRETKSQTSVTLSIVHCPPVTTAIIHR

T2: DFNB31_1, Q9P202
T2 sequence (Q9P202 135-233, limits assumed, looked up): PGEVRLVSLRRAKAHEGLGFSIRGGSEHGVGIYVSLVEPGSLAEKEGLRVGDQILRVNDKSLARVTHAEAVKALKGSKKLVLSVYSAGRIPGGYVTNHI

T3: DLG3_3, Q92796
T3 sequence (Q92796 374-475, limits assumed, looked up): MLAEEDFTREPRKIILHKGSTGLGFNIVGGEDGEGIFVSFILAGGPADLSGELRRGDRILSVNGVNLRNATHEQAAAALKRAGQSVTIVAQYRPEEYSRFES

T4: DVL3, Q92997
T4 sequence (Q92997 244-331, limits assumed, looked up): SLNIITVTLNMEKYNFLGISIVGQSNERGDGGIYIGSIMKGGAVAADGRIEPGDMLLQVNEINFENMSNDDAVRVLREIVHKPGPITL

T5: LRRC7, Q96NW7
T5 sequence (Q96NW7 1440-1537, limits assumed, looked up): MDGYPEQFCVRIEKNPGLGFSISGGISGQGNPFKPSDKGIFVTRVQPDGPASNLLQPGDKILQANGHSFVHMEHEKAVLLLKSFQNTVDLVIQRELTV

T6: MPDZ_10, O75970
T6 sequence (O75970 1624-1722, limits assumed, looked up): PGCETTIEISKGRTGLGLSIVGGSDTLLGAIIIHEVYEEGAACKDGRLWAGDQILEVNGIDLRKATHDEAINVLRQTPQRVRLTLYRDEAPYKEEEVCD

T7: MPDZ_5, O75970
T7 sequence (O75970 695-796, limits assumed, looked up): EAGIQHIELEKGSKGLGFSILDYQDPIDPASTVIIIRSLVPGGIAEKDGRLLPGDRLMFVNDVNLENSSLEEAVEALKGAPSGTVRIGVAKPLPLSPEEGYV

T8: MPP7, Q5T2T1
T8 sequence (Q5T2T1 134-230, limits assumed, looked up): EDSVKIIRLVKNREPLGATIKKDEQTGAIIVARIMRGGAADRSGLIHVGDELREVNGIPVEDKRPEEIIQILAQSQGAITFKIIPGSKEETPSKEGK

T9: PDZRN3_1, Q9UPQ7
T9 sequence (Q9UPQ7 244-349, limits assumed, looked up): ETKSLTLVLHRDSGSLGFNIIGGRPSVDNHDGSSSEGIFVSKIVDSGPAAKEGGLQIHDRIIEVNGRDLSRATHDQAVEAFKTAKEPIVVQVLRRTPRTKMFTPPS

T10: RHPN1, Q8TCX5
T10 sequence (Q8TCX5 508-602, limits assumed, looked up): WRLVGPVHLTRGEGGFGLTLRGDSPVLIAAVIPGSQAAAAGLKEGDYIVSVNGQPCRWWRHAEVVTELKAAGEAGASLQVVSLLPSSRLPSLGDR

T11: SNTB1, Q13884
T11 sequence (Q13884 107-205, limits assumed, looked up): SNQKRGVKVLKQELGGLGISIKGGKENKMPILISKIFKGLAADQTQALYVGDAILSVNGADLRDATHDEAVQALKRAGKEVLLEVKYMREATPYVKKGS


What was measured:
Assay in all cases: holdup assay
Design in all cases: key: below the threshold = too weak to quantify, mostly under pKd 3.1 to 4
Details in all cases: plain residues with an end cap or a label only (N-terminal biotin on a linker: ado-ado)
APBA3_1, O96018 = target: T1, APBA3_1, O96018
DFNB31_1, Q9P202 = target: T2, DFNB31_1, Q9P202
DLG2_2, Q15700 = target: DLG2_2, Q15700
DLG3_3, Q92796 = target: T3, DLG3_3, Q92796
DVL3, Q92997 = target: T4, DVL3, Q92997
FRMPD2_1, Q68DX3 = target: FRMPD2_1, Q68DX3
GORASP1, Q9BQQ3 = target: GORASP1, Q9BQQ3
GORASP2, Q9H8Y8 = target: GORASP2, Q9H8Y8
GRIP2_6, Q9C0E4 = target: GRIP2_6, Q9C0E4
IL16_1, Q14005 = target: IL16_1, Q14005
Inadl_1, Q8NI35 = target: Inadl_1, Q8NI35
Inadl_3, Q8NI35 = target: Inadl_3, Q8NI35
Inadl_4, Q8NI35 = target: Inadl_4, Q8NI35
LRRC7, Q96NW7 = target: T5, LRRC7, Q96NW7
MPDZ_10, O75970 = target: T6, MPDZ_10, O75970
MPDZ_5, O75970 = target: T7, MPDZ_5, O75970
MPP7, Q5T2T1 = target: T8, MPP7, Q5T2T1
NHERF4_1, Q86UT5-2 = target: NHERF4_1, Q86UT5-2
NHERF4_4, Q86UT5 = target: NHERF4_4, Q86UT5
PDLIM1, O00151 = target: PDLIM1, O00151
PDZRN3_1, Q9UPQ7 = target: T9, PDZRN3_1, Q9UPQ7
RHPN1, Q8TCX5 = target: T10, RHPN1, Q8TCX5
SCRIB_1, Q14160 = target: SCRIB_1, Q14160
SCRIB_3, Q14160 = target: SCRIB_3, Q14160
SNTB1, Q13884 = target: T11, SNTB1, Q13884
TJP1_2, Q07157 = target: TJP1_2, Q07157
Chain of TJP1_2, Q07157 (Q07157 181-274): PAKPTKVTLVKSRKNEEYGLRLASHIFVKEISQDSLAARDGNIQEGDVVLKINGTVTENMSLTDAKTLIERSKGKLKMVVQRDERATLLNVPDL

Chain of SCRIB_3, Q14160 (Q14160 999-1103): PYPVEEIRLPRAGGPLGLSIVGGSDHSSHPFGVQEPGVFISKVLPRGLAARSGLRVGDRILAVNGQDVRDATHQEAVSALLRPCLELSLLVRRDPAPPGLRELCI
Chain of GRIP2_6, Q9C0E4 (Q9C0E4 648-740): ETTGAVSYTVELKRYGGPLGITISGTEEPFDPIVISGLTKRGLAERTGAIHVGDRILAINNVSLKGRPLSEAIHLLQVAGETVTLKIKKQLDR
Chain of NHERF4_1, Q86UT5-2 (Q86UT5 other isoform, or with tags, fused parts or gaps): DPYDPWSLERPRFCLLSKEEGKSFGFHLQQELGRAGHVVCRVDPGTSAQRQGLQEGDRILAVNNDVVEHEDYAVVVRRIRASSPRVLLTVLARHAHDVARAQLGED
Chain of FRMPD2_1, Q68DX3 (Q68DX3 770-861): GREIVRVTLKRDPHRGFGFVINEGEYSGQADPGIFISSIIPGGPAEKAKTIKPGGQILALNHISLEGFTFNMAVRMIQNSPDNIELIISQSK
Chain of NHERF4_4, Q86UT5 (Q86UT5 464-550): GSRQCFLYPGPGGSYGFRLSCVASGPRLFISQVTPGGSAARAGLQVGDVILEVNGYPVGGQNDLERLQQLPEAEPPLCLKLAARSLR
Chain of GORASP1, Q9BQQ3 (Q9BQQ3 1-208): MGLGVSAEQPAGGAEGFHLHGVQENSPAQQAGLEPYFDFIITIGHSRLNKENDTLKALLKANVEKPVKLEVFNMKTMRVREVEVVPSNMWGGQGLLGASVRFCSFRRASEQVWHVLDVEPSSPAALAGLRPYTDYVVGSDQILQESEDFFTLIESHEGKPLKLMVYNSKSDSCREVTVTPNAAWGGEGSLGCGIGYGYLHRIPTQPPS
Chain of Inadl_4, Q8NI35 (Q8NI35 547-651): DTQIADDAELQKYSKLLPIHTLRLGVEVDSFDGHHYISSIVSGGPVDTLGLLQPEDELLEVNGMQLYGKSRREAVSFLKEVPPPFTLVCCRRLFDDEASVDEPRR
Chain of SCRIB_1, Q14160 (Q14160 718-814): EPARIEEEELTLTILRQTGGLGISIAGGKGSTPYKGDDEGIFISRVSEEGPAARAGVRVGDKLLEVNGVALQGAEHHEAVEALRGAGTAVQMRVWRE
Chain of IL16_1, Q14005 (Q14005 210-306): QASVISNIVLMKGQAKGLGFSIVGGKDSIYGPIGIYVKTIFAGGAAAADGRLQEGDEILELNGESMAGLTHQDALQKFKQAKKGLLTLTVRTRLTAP
Chain of DLG2_2, Q15700 (Q15700 189-283): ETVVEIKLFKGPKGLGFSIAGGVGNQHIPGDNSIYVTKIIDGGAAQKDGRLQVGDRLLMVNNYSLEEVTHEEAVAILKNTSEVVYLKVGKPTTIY
Chain of Inadl_3, Q8NI35 (Q8NI35 359-469): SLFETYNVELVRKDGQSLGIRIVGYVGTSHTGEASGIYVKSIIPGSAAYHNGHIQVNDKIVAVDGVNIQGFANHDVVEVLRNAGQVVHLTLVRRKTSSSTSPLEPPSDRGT
Chain of Inadl_1, Q8NI35 (Q8NI35 113-229): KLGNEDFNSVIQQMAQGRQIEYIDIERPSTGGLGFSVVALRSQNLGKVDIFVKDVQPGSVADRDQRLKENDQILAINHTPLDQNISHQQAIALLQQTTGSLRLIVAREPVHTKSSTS
Chain of PDLIM1, O00151 (O00151 1-87): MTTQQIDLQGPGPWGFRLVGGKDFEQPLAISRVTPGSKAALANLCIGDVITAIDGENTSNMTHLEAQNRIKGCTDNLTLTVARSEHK

Binder | pKd (APBA3_1, O96018) | pKd (DFNB31_1, Q9P202) | pKd (DLG2_2, Q15700) | pKd (DLG3_3, Q92796) | pKd (DVL3, Q92997) | pKd (FRMPD2_1, Q68DX3) | pKd (GORASP1, Q9BQQ3) | pKd (GORASP2, Q9H8Y8) | pKd (GRIP2_6, Q9C0E4) | pKd (IL16_1, Q14005) | pKd (Inadl_1, Q8NI35) | pKd (Inadl_3, Q8NI35) | pKd (Inadl_4, Q8NI35) | pKd (LRRC7, Q96NW7) | pKd (MPDZ_10, O75970) | pKd (MPDZ_5, O75970) | pKd (MPP7, Q5T2T1) | pKd (NHERF4_1, Q86UT5-2) | pKd (NHERF4_4, Q86UT5) | pKd (PDLIM1, O00151) | further results
LRSPRTPSEV [OR10G3, Q8NGC4] | below the threshold | below the threshold | 3.55 | below the threshold | below the threshold | below the threshold | below the threshold | below the threshold | below the threshold | below the threshold | below the threshold | below the threshold | below the threshold | 3.48 | 3.67 | 3.82 | below the threshold | 3.63 | below the threshold | below the threshold | pKd (PDZRN3_1, Q9UPQ7): below the threshold; pKd (RHPN1, Q8TCX5): below the threshold; pKd (SCRIB_1, Q14160): below the threshold; pKd (SCRIB_3, Q14160): 3.61; pKd (SNTB1, Q13884): below the threshold; pKd (TJP1_2, Q07157): 3.62
RRRESYSTTV [EVI5, O60447] | below the threshold | 3.52 | 5.54 | 4.28 | below the threshold | 3.74 | 4.7 | 5.13 | 4.61 | below the threshold | below the threshold | 3.99 | below the threshold | below the threshold | below the threshold | below the threshold | below the threshold | below the threshold | below the threshold | below the threshold | pKd (PDZRN3_1, Q9UPQ7): 3.83; pKd (RHPN1, Q8TCX5): below the threshold; pKd (SCRIB_1, Q14160): 4.57; pKd (SCRIB_3, Q14160): 4.48; pKd (SNTB1, Q13884): 4.65; pKd (TJP1_2, Q07157): below the threshold
